These are literature values, as cited in article PMC3321547 (Biochemistry, 2009).

For this series, the system named is DKH960. To be noted: folded DKH960, ref [6].

B1: DKH960: folded kinesin heavy chain construct (protein, UniProt P17210 1-960, looked up, fragment)
chain: MSAEREIPAEDSIKVVCRFRPLNDSEEKAGSKFVVKFPNNVEENCISIAGKVYLFDKVFKPNASQEKVYNEAAKSIVTDVLAGYNGTIFAYGQTSSGKTHTMEGVIGDSVKQGIIPRIVNDIFNHIYAMEVNLEFHIKVSYYEIYMDKIRDLLDVSKVNLSVHEDKNRVPYVKGATERFVSSPEDVFEVIEEGKSNRHIAVTNMNEHSSRSHSVFLINVKQENLENQKKLSGKLYLVDLAGSEKVSKTGAEGTVLDEAKNINKSLSALGNVISALADGNKTHIPYRDSKLTRILQESLGGNARTTIVICCSPASFNESETKSTLDFGRRAKTVKNVVCVNEELTAEEWKRRYEKEKEKNARLKGKVEKLEIELARWRAGETVKAEEQINMEDLMEASTPNLEVEAAQTAAAEAALAAQRTALANMSASVAVNEQARLATECERLYQQLDDKDEEINQQSQYAEQLKEQVMEQEELIANARREYETLQSEMARIQQENESAKEEVKEVLQALEELAVNYDQKSQEIDNKNKDIDALNEELQQKQSVFNAASTELQQLKDMSSHQKKRITEMLTNLLRDLGEVGQAIAPGESSIDLKMSALAGTDASKVEEDFTMARLFISKMKTEAKNIAQRCSNMETQQADSNKKISEYEKDLGEYRLLISQHEARMKSLQESMREAENKKRTLEEQIDSLREECAKLKAAEHVSAVNAEEKQRAEELRSMFDSQMDELREAHTRQVSELRDEIAAKQHEMDEMKDVHQKLLLAHQQMTADYEKVRQEDAEKSSELQNIILTNERREQARKDLKGLEDTVAKELQTLHNLRKLFVQDLQQRIRKNVVNEESEEDGGSLAQKQKISFLENNLDQLTKVHKQLVRDNADLRCELPKLEKRLRCTMERVKALETALKEAKEGAMRDRKRYQYEVDRIKEAVRQKHLGRRGPQAQIAKPIRSGQGAIAIRGGGA
On to B1, for which the “maximum extent of inhibition of ADP release” value is listed as “over 50%”.
